Consider six molecules from PMC12227652 (Nature Communications, 2025).

Residue numbers refer to the chain shown, from its start. Numbers in names are those of the source. Read-outs that look alike come from different tables or passages of the source.

Broadly, the stoichiometry N is a count of units in the complex or per binding partner. As a reminder, the Kd is a measure of binding affinity in units of concentration. The low end stands for tighter binding, the high end for weaker binding.

First the molecules themselves.
B1: MBP-TRAK1_(416-446,561-623) (domain or fragment, human, UniProt Q9UPV9 416-446, looked up)
chain: RSLTPSPMNIPGSNQSSAMNSLLSSCVSTPRGMSFSSRSYLPEKLQIVKPLEGSATLHHWQQLAQPHLGGILDPRPGVVTKGFRTLDVDLDEVY
B2: MBP-TRAK1_(416-446,561-623) W589D (domain or fragment, human, UniProt Q9UPV9 416-446, looked up)
chain: B1 chain with W60D
B3: MBP-TRAK1_(416-446,561-623) L597D (domain or fragment, human, UniProt Q9UPV9 416-446, looked up)
chain: B1 chain with L68D
B4: TRAK1_(569-623) (domain or fragment, human, UniProt Q9UPV9 569-623, looked up)
chain: YLPEKLQIVKPLEGSATLHHWQQLAQPHLGGILDPRPGVVTKGFRTLDVDLDEVY
B5: MIRO1_(1-591), full-length cytosolic human MIRO1 (domain or fragment, UniProt Q8IXI2 1-591, looked up)
chain: MKKDVRILLVGEPRVGKTSLIMSLVSEEFPEEVPPRAEEITIPADVTPERVPTHIVDYSEAEQSDEQLHQEISQANVICIVYAVNNKHSIDKVTSRWIPLINERTDKDSRLPLILVGNKSDLVEYSSMETILPIMNQYTEIETCVECSAKNLKNISELFYYAQKAVLHPTGPLYCPEEKEMKPACIKALTRIFKISDQDNDGTLNDAELNFFQRICFNTPLAPQALEDVKNVVRKHISDGVADSGLTLKGFLFLHTLFIQRGRHETTWTVLRRFGYDDDLDLTPEYLFPLLKIPPDCTTELNHHAYLFLQSTFDKHDLDRDCALSPDELKDLFKVFPYIPWGPDVNNTVCTNERGWITYQGFLSQWTLTTYLDVQRCLEYLGYLGYSILTEQESQASAVTVTRDKKIDLQKKQTQRNVFRCNVIGVKNCGKSGVLQALLGRNLMRQKKIREDHKSYYAINTVYVYGQEKYLLLHDISESEFLTEAEIICDVVCLVYDVSNPKSFEYCARIFKQHFMDSRIPCLIVAAKSDLHEVKQEYSISPTDFCRKHKMPPPQAFTCNTADAPSKDIFVKLTTMAMYPHVTQADLKSST
B6: MBP-TRAK1_(416-431) (peptide, UniProt Q9UPV9 416-431, looked up)
chain: RSLTPSPMNIPGSNQS

Data set [1] deals with B5. The data set is described as follows: pull-down.
The target in data set [2] is B5. The data set is described as follows: pull-down. This is another data set of the same source.
Data set [3] deals with the molecule itself. The data set is described as follows: cryo-EM structure.
Data set [4] deals with the molecule itself. The data set is described as follows: mass photometry.
In data set [5] the target is MIRO1_(177-591) (human, UniProt Q8IXI2 177-591). The data set is described as follows: ITC. For orientation: In ITC the heat of successive injections is recorded.

B1: the binding result in data set [1] was “binds”.

Consider B2, for which the binding result in data set [2] is recorded as “binds”.

On to B3, for which the binding result in data set [2] is recorded as “binds”.

In the case of B4, the binding result in data set [3] is “binds”.

In the case of B5, in data set [4], the “stoichiometry N” value worked out at 2.

As to B6, in data set [5], the dissociation constant (Kd) lay in the range of 10.9 to 15.9 µM and the “stoichiometry N” value was determined as 1.
